T1: human FcγRIIa H extracellular domain (human, UniProt P12318 34-217)
T1 construct: extracellular domain; Made by the method of WO2014104165; also called hFcγR IIa H; FcyRIIaH
T1 sequence (looked up): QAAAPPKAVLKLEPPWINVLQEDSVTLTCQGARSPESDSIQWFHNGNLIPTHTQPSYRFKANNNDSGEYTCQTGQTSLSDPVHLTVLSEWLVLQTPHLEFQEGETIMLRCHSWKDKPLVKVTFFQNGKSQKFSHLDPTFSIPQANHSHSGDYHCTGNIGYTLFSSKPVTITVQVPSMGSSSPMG

T2: hFcyRIIaH on hFcyRIIaH-expressing Jurkat cells (human, UniProt P12318 34-317)
T2 sequence (looked up): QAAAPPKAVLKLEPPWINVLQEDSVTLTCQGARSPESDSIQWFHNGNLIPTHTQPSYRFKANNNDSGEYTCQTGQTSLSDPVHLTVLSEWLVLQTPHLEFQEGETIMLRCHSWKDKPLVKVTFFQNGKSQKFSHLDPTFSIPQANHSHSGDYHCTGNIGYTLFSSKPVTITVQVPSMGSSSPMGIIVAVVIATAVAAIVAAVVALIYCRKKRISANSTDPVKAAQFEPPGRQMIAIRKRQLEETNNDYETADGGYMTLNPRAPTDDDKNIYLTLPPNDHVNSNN


Key:
[1] = biological target: hFcyRIIIaV on hFcyRIIIaV-expressing Jurkat cells (human, UniProt P08637 17-254); test: cell-based or functional assay
[2] = biological target: T3, human FcγRIIIa F extracellular domain (human, UniProt P08637 17-208); test: SPR; KD for FcγRIIb divided by KD for this FcγR
T3 construct: extracellular domain; Made by the method of WO2014104165; also called hFcγR IIIa F; FcyRIIIaF

[3] = biological target: T1, human FcγRIIa H extracellular domain; test: SPR; KD for FcγRIIb divided by KD for this FcγR
[4] = biological target: T2, hFcyRIIaH on hFcyRIIaH-expressing …; test: cell-based or functional assay

hFcyRIIIaV on hFcyRIIIaV-expressing Jurkat cells, sequence (P08637 17-254): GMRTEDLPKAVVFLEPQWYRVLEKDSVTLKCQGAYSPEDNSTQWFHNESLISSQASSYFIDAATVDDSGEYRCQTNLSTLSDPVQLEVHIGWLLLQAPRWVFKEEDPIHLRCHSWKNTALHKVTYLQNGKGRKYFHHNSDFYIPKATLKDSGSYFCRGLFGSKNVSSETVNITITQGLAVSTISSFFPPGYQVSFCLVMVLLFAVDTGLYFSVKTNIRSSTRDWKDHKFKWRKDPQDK
T3 sequence (P08637 17-208): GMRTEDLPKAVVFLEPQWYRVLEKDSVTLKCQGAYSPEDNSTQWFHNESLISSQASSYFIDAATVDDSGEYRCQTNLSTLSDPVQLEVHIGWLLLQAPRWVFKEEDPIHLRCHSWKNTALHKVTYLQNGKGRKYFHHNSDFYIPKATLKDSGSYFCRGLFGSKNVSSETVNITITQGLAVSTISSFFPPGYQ

| Binder | EC50 value (µg/mL), ADCC reporter bioassay (fold induction of luminescence), Hepa1-6/hEREG target cells [1] | A/I ratio (KD for FcγRIIb divided by KD for each FcyR) [2] | A/I ratio (KD for FcγRIIb divided by KD for each FcyR) [3] | EC50 value (µg/mL), ADCP reporter bioassay (fold induction of luminescence), Hepa1-6/hEREG target cells [4] |
| --- | --- | --- | --- | --- |
| H240-Kn496/L73-k0//H240-Hl516/L73-k0 (antibody, human IgG1, kappa, also called EGL-ART11; ART11) heavy 1: QDQLVQSGAEVKKPGASVKVSCKASGFNIKDTYIQWVRQAPGQGLEWMGRIDPLRKQTKYREKFEGRVTITADTSTNTAYMELSSLRSEDTAVYYCVRSGREFDYWGQGTLVTVSSASTKGPSVFPLAPSSKSTSGGTAALGCLVKDYFPEPVTVSWNSGALTSGVHTFPAVLQSSGLYSLSSVVTVPSSSLGTQTYICNVNHKPSNTKVDKKVEPKSCDKTHTCPPCPAPEFQWGPMVFLFPPKPKDVLMISRTPEVTCVVVDVSDEEPEVKFNWYVDGVEVHNAKTKPREEQYNATYRVVSVLPVLHQDWLNGKEYKCKVSNKALPAPIEKTISKAKGQPREPQVCTLPPSRDELTKNQVSLWCLVKGFYPSDIAVEWESNGQPENNYKTTPPVLDSDGSFFLYSKLTVDKSRWQQGNVFSCSVMHEALHNHYTQKSLSLSP heavy 2: QDQLVQSGAEVKKPGASVKVSCKASGFNIKDTYIQWVRQAPGQGLEWMGRIDPLRKQTKYREKFEGRVTITADTSTNTAYMELSSLRSEDTAVYYCVRSGREFDYWGQGTLVTVSSASTKGPSVFPLAPSSKSTSGGTAALGCLVKDYFPEPVTVSWNSGALTSGVHTFPAVLQSSGLYSLSSVVTVPSSSLGTQTYICNVNHKPSNTKVDKKVEPKSCDKTHTCPPCPAPELLGGPSVFLFPPKPKDVLMISRTPEVTCVVVDVSHEEPEVKFNWYVDGVEVHNAKTKPREEQYNATYRVVSVLPVLHQDWLNGKEYKCKVSNDALPAPIEETISKAKGQPREPQVYTLPPSRCELTKNQVSLSCAVKGFYPSDIAVEWESNGQPENNYKTTPPVLDSDGSFFLVSKLTVDKSRWQQGNVFSCSVMHEALHNHYTQKSLSLSP light: DIQMTQSPSSLSASVGDRVTITCRASQDIHKYIAWYQQKPGQAPRLLIQYTSTLQPGVPSRFSGSGSGTDYTFTISSLQPEDIATYYCLQYEQLRTFGGGTKVEIKRTVAAPSVFIFPPSDEQLKSGTASVVCLLNNFYPREAKVQWKVDNALQSGNSQESVTEQDSKDSTYSLSSTLTLSKADYEKHKVYACEVTHQGLSSPVTKSFNRGEC | 0.000413 µg/mL | 694 | 63.3 | 0.0367 µg/mL |
| H240-G1d/L73-k0 (antibody, human IgG1, kappa, Anti-human Epiregulin antibody with the human IgG1 constant region G1d (C-terminal Gly and Lys removed); the text gives 279; also called EGL-G1d) heavy: not shown light: DIQMTQSPSSLSASVGDRVTITCRASQDIHKYIAWYQQKPGQAPRLLIQYTSTLQPGVPSRFSGSGSGTDYTFTISSLQPEDIATYYCLQYEQLRTFGGGTKVEIKRTVAAPSVFIFPPSDEQLKSGTASVVCLLNNFYPREAKVQWKVDNALQSGNSQESVTEQDSKDSTYSLSSTLTLSKADYEKHKVYACEVTHQGLSSPVTKSFNRGEC | 0.0463 µg/mL | 3.4 | 8.9 |  |

Further lines, results first:

| EC50 value (µg/mL), ADCC reporter bioassay (fold induction of luminescence), Hepa1-6/hEREG target cells [1] | A/I ratio (KD for FcγRIIb divided by KD for each FcyR) [2] | A/I ratio (KD for FcγRIIb divided by KD for each FcyR) [3] | EC50 value (µg/mL), ADCP reporter bioassay (fold induction of luminescence), Hepa1-6/hEREG target cells [4] | Binder |
| --- | --- | --- | --- | --- |
| 0.00178 µg/mL | 98.7 | 2.2 |  | H240-Kn032/L73-k0//H240-Hl032/L73-k0 (antibody, human IgG1, kappa, also called EGL-SDALIE; SDALIE) heavy 1: QDQLVQSGAEVKKPGASVKVSCKASGFNIKDTYIQWVRQAPGQGLEWMGRIDPLRKQTKYREKFEGRVTITADTSTNTAYMELSSLRSEDTAVYYCVRSGREFDYWGQGTLVTVSSASTKGPSVFPLAPSSKSTSGGTAALGCLVKDYFPEPVTVSWNSGALTSGVHTFPAVLQSSGLYSLSSVVTVPSSSLGTQTYICNVNHKPSNTKVDKKVEPKSCDKTHTCPPCPAPELLGGPDVFLFPPKPKDTLMISRTPEVTCVVVDVSHEDPEVKFNWYVDGVEVHNAKTKPREEQYNSTYRVVSVLTVLHQDWLNGKEYKCKVSNKALPLPEEKTISKAKGQPREPQVCTLPPSRDELTKNQVSLWCLVKGFYPSDIAVEWESNGQPENNYKTTPPVLDSDGSFFLYSKLTVDKSRWQQGNVFSCSVMHEALHNHYTQKSLSLSP heavy 2: QDQLVQSGAEVKKPGASVKVSCKASGFNIKDTYIQWVRQAPGQGLEWMGRIDPLRKQTKYREKFEGRVTITADTSTNTAYMELSSLRSEDTAVYYCVRSGREFDYWGQGTLVTVSSASTKGPSVFPLAPSSKSTSGGTAALGCLVKDYFPEPVTVSWNSGALTSGVHTFPAVLQSSGLYSLSSVVTVPSSSLGTQTYICNVNHKPSNTKVDKKVEPKSCDKTHTCPPCPAPELLGGPDVFLFPPKPKDTLMISRTPEVTCVVVDVSHEDPEVKFNWYVDGVEVHNAKTKPREEQYNSTYRVVSVLTVLHQDWLNGKEYKCKVSNKALPLPEEKTISKAKGQPREPQVYTLPPSRCELTKNQVSLSCAVKGFYPSDIAVEWESNGQPENNYKTTPPVLDSDGSFFLVSKLTVDKSRWQQGNVFSCSVMHEALHNHYTQKSLSLSP light: DIQMTQSPSSLSASVGDRVTITCRASQDIHKYIAWYQQKPGQAPRLLIQYTSTLQPGVPSRFSGSGSGTDYTFTISSLQPEDIATYYCLQYEQLRTFGGGTKVEIKRTVAAPSVFIFPPSDEQLKSGTASVVCLLNNFYPREAKVQWKVDNALQSGNSQESVTEQDSKDSTYSLSSTLTLSKADYEKHKVYACEVTHQGLSSPVTKSFNRGEC |
| 0.000716 µg/mL | 4950 | 47.4 | 0.0353 µg/mL | H240-Kn125/L73-k0//H240-Hl076/L73-k0 (antibody, human IgG1, kappa, Heterodimerized anti-human Epiregulin antibody, asymmetric Fc variant; also called EGL-ART1; ART1) heavy 1: QDQLVQSGAEVKKPGASVKVSCKASGFNIKDTYIQWVRQAPGQGLEWMGRIDPLRKQTKYREKFEGRVTITADTSTNTAYMELSSLRSEDTAVYYCVRSGREFDYWGQGTLVTVSSASTKGPSVFPLAPSSKSTSGGTAALGCLVKDYFPEPVTVSWNSGALTSGVHTFPAVLQSSGLYSLSSVVTVPSSSLGTQTYICNVNHKPSNTKVDKKVEPKSCDKTHTCPPCPAPEYQWGPMVFLFPPKPKDTLMISRTPEVTCVVVDVSDEEPEVKFNWYVDGVEVHNAKTKPREEQYNATYRVVSVLTVLHQDWLNGKEYKCKVSNKALPAPIEKTISKAKGQPREPQVCTLPPSRDELTKNQVSLWCLVKGFYPSDIAVEWESNGQPENNYKTTPPVLDSDGSFFLYSKLTVDKSRWQQGNVFSCSVMHEALHNHYTQKSLSLSP heavy 2: QDQLVQSGAEVKKPGASVKVSCKASGFNIKDTYIQWVRQAPGQGLEWMGRIDPLRKQTKYREKFEGRVTITADTSTNTAYMELSSLRSEDTAVYYCVRSGREFDYWGQGTLVTVSSASTKGPSVFPLAPSSKSTSGGTAALGCLVKDYFPEPVTVSWNSGALTSGVHTFPAVLQSSGLYSLSSVVTVPSSSLGTQTYICNVNHKPSNTKVDKKVEPKSCDKTHTCPPCPAPELLGGPSVFLFPPKPKDTLMISRTPEVTCVVVDVSHEEPEVKFNWYVDGVEVHNAKTKPREEQYNSTYRVVSVLTVLHQDWLNGKEYKCKVSNDALPMPIEETISKAKGQPREPQVYTLPPSRCELTKNQVSLSCAVKGFYPSDIAVEWESNGQPENNYKTTPPVLDSDGSFFLVSKLTVDKSRWQQGNVFSCSVMHEALHNHYTQKSLSLSP light: DIQMTQSPSSLSASVGDRVTITCRASQDIHKYIAWYQQKPGQAPRLLIQYTSTLQPGVPSRFSGSGSGTDYTFTISSLQPEDIATYYCLQYEQLRTFGGGTKVEIKRTVAAPSVFIFPPSDEQLKSGTASVVCLLNNFYPREAKVQWKVDNALQSGNSQESVTEQDSKDSTYSLSSTLTLSKADYEKHKVYACEVTHQGLSSPVTKSFNRGEC |
| 0.00135 µg/mL | 68.4 | 5.8 | 0.0218 µg/mL | H240-Kn120/L73-k0//H240-Hl068/L73-k0 (antibody, human IgG1, kappa, also called EGL-ART2; ART2) heavy 1: QDQLVQSGAEVKKPGASVKVSCKASGFNIKDTYIQWVRQAPGQGLEWMGRIDPLRKQTKYREKFEGRVTITADTSTNTAYMELSSLRSEDTAVYYCVRSGREFDYWGQGTLVTVSSASTKGPSVFPLAPSSKSTSGGTAALGCLVKDYFPEPVTVSWNSGALTSGVHTFPAVLQSSGLYSLSSVVTVPSSSLGTQTYICNVNHKPSNTKVDKKVEPKSCDKTHTCPPCPAPEYYWGPMVFLFPPKPKDTLMISRTPEVTCVVVDVSDEDPEVKFNWYVDGVEVHNAKTKPREEQYNATYRVVSVLTVLHQDWLNGKEYKCKVSNKDLPAPIEKTISKAKGQPREPQVCTLPPSRDELTKNQVSLWCLVKGFYPSDIAVEWESNGQPENNYKTTPPVLDSDGSFFLYSKLTVDKSRWQQGNVFSCSVMHEALHNHYTQKSLSLSP heavy 2: QDQLVQSGAEVKKPGASVKVSCKASGFNIKDTYIQWVRQAPGQGLEWMGRIDPLRKQTKYREKFEGRVTITADTSTNTAYMELSSLRSEDTAVYYCVRSGREFDYWGQGTLVTVSSASTKGPSVFPLAPSSKSTSGGTAALGCLVKDYFPEPVTVSWNSGALTSGVHTFPAVLQSSGLYSLSSVVTVPSSSLGTQTYICNVNHKPSNTKVDKKVEPKSCDKTHTCPPCPAPELLGGPSVFLFPPKPKDTLMISRTPEVTCVVVDVSHEEPEVKFNWYVDGVEVHNAKTKPREEQYNSTYRVVSVLTVLHQDWLNGKEYKCKVSNDALPKPIEETISKAKGQPREPQVYTLPPSRCELTKNQVSLSCAVKGFYPSDIAVEWESNGQPENNYKTTPPVLDSDGSFFLVSKLTVDKSRWQQGNVFSCSVMHEALHNHYTQKSLSLSP light: DIQMTQSPSSLSASVGDRVTITCRASQDIHKYIAWYQQKPGQAPRLLIQYTSTLQPGVPSRFSGSGSGTDYTFTISSLQPEDIATYYCLQYEQLRTFGGGTKVEIKRTVAAPSVFIFPPSDEQLKSGTASVVCLLNNFYPREAKVQWKVDNALQSGNSQESVTEQDSKDSTYSLSSTLTLSKADYEKHKVYACEVTHQGLSSPVTKSFNRGEC |

Source: patent publication EP4361176A1 (CHUGAI SEIYAKU KABUSHIKI KAISHA, dated 2024)
